# Experimental data: article PMC7277757, “On the Electrochemical Detection of Alpha-Fetoprotein Using Aptamers: DNA Isothermal Amplification Strategies to Improve the Performance of Weak Aptamers”
# T1: alpha-fetoprotein (AFP) (Homo sapiens) (UniProt P02771)
# T1 sequence: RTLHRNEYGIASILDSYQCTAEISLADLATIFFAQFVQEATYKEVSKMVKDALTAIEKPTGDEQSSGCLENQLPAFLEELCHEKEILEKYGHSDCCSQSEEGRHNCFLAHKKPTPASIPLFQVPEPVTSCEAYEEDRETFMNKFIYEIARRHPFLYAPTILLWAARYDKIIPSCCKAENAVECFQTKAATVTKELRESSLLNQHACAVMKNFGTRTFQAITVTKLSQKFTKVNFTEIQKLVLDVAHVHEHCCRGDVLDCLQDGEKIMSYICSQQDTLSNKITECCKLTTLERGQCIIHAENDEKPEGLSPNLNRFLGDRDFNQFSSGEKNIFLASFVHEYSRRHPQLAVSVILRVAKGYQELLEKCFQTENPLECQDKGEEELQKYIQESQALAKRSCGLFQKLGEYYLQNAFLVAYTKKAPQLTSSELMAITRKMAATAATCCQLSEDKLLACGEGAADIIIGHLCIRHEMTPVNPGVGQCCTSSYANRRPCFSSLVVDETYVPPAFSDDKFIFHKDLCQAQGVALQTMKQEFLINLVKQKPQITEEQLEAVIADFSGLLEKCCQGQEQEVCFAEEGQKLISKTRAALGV
# T2: alpha-fetoprotein (AFP) (Homo sapiens, UniProt P02771 19-609)
# T2 sequence: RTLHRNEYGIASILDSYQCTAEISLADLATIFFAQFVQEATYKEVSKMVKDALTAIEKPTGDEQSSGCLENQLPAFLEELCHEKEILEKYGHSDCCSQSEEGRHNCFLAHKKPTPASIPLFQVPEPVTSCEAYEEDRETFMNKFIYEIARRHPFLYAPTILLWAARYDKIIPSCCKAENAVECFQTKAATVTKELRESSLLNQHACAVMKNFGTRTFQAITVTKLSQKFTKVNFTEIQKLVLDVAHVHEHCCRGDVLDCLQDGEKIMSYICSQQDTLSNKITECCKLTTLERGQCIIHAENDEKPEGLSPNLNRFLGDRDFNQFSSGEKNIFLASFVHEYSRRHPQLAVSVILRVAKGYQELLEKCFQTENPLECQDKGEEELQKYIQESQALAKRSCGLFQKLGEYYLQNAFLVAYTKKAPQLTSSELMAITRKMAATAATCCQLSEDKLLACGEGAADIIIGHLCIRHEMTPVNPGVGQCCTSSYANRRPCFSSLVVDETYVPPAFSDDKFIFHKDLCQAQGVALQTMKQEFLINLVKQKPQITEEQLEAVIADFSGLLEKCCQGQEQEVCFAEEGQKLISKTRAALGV
# Legend:
# [1] = target: T1, alpha-fetoprotein (AFP) (Homo sapiens); test: magnetic bead binding assay, antiF-POD, chronoamperometry; conditions: no amplification; 1:1 fit; 1x PBS, 25 °C, 30 min, 1300 rpm; 60 µg AFP-modified magnetic beads in 250 µL (effective AFP about 34 nM); washes 1x PBS 0.01% Tween 20; pH not stated
# alpha-fetoprotein (AFP) [2] = target: T2, alpha-fetoprotein (AFP); test: magnetic bead binding assay, TdT amplification, SA-POD, chronoamperometry; apparent Kd; TdT elongation after binding; Langmuir fit; 1x PBS, 25 °C, 30 min, 1300 rpm; 60 µg AFP-modified magnetic beads in 250 µL (effective AFP about 34 nM); washes 1x PBS 0.01% Tween 20; pH not stated; conditions: protein: native
# alpha-fetoprotein (AFP) [3] = target: T2, alpha-fetoprotein (AFP); test: magnetic bead binding assay, RCA amplification, antiF-POD, chronoamperometry; apparent Kd; RCA after binding; Langmuir fit (abstract prints 189 nM); 1x PBS, 25 °C, 30 min, 1300 rpm; 60 µg AFP-modified magnetic beads in 250 µL (effective AFP about 34 nM); washes 1x PBS 0.01% Tween 20; pH not stated; conditions: protein: native
# alpha-fetoprotein (AFP) [4] = target: T2, alpha-fetoprotein (AFP); test: magnetic bead binding assay, antiF-POD, chronoamperometry; no amplification; Hill n = 1.6 ± 0.4; 1x PBS, 25 °C, 30 min, 1300 rpm; 60 µg AFP-modified magnetic beads in 250 µL (effective AFP about 34 nM); washes 1x PBS 0.01% Tween 20; pH not stated; conditions: protein: native; label: 5' FITC
molecule,measurement,setting,value
TCAGGTGCAGTTCTCGACTCGGTCTTGATGTGGGT [AFP-S-FITC],Kd,[1],713 nM
AFP-L-TdT (ssDNA) DNA: GGCAGGAAGACAAACAAGCTTGGCGGCGGGAAGGTGTTTAAATTCCCGGGTCTGCGTGGTCTGTGGTGCTGTTTTTTT,Kd,alpha-fetoprotein (AFP) [2],32 ± 11 nM
AFP-S-RCA (ssDNA) DNA: TCAGGTGCAGTTCTCGACTCGGTCTTGATGTGGGTTTTTTTTTTTAGATAGTAAGTGCAATCT,Kd,alpha-fetoprotein (AFP) [3],188 ± 33 nM
AFP-L-FITC (ssDNA) DNA: GGCAGGAAGACAAACAAGCTTGGCGGCGGGAAGGTGTTTAAATTCCCGGGTCTGCGTGGTCTGTGGTGCTGT,Kd,alpha-fetoprotein (AFP) [4],526 ± 101 nM
